Data taken from patent US20260209339A1 (RADIANT BIOTHERAPEUTICS, published 2026).
Read-outs that look alike come from different tables or passages of the source.

Key:
[1] = molecular target: interleukin-6 (IL-6) (UniProt P05231); test: BLI (Octet), IL-6 immobilized on the biosensor
[2] = molecular target: interleukin-6 (IL-6) (UniProt P05231); test: ELISA on IL-6
[3] = molecular target: interleukin-6 (IL-6) (UniProt P05231); test: cell-based or functional assay
[4] = molecular target: interleukin-6 (IL-6) (UniProt P05231); test: cell-based or functional assay; remark: listed apart in the source
[5] = molecular target: bovine serum albumin (BSA) (bovine, UniProt P02769 25-607); test: ELISA
Sequence of bovine serum albumin (BSA) (P02769 25-607 limits assumed): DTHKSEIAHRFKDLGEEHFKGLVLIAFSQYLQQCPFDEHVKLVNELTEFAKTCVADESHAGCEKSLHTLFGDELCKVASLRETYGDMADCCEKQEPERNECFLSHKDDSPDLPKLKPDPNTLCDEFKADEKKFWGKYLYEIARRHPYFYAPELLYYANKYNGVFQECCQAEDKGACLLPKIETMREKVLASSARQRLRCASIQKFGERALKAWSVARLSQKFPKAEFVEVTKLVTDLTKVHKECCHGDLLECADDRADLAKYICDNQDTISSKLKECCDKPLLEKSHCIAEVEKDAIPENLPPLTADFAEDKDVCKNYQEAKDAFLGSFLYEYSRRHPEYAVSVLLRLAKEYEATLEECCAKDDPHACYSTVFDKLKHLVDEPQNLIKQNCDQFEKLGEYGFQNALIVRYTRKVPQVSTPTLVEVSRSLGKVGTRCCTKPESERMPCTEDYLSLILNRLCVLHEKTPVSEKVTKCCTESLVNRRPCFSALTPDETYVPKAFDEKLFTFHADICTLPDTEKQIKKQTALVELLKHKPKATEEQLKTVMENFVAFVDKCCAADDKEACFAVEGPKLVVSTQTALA

[6] = molecular target: T1, interleukin-11 (IL-11) (UniProt P20809 22-199, limits assumed); test: ELISA
T1 sequence (looked up): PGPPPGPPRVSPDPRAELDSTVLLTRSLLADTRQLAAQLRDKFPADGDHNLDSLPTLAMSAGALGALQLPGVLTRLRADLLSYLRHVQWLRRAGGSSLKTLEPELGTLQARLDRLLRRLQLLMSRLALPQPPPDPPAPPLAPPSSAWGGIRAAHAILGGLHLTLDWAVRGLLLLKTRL

[7] = molecular target: T2, interleukin-6 (IL-6) (UniProt P05231 30-212); test: cell-based or functional assay
[8] = molecular target: T2, interleukin-6 (IL-6); test: ELISA on IL-6
[9] = molecular target: T2, interleukin-6 (IL-6); test: cell-based or functional assay; remark: listed apart in the source
[10] = molecular target: T2, interleukin-6 (IL-6); test: BLI (Octet), IL-6 immobilized on the biosensor
Source text: This method measures binding reactions at the surface of a fiber optic biosensor functionalized with an immobilized target moiety (e.g., IL-6).

[11] = molecular target: T2, interleukin-6 (IL-6); test: cell-based or functional assay; remark: listed apart in the source
[12] = molecular target: T3, interleukin-11 (IL-11) (UniProt P20809); test: cell-based or functional assay
T3 sequence (looked up): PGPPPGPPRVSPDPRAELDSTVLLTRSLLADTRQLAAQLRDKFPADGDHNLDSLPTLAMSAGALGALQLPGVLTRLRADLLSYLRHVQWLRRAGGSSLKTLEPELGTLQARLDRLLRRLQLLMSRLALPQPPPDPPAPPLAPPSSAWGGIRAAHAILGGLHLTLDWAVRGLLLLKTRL

[13] = molecular target: T3, interleukin-11 (IL-11); test: ELISA on IL-11
[14] = molecular target: T1, interleukin-11 (IL-11); test: ELISA on IL-11
Procedure: Binding of anti-IL-11 Multabodies to IL-11 was assessed using an enzyme-linked immunosorbent assay (ELISA).

[15] = molecular target: T1, interleukin-11 (IL-11); test: cell-based or functional assay

Sequence of interleukin-6 (IL-6) (UniProt P05231) (P05231 30-212 limits assumed): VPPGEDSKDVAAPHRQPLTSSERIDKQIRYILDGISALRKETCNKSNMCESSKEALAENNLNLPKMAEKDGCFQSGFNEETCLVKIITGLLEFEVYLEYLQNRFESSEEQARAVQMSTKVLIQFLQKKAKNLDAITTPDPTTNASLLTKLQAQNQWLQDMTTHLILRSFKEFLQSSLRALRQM

With “Siltuximab Multabody (MB) (from UniProt P04945 1-108)” the Kd [1] was < 0.001 nM, the EC50 [2] was 0.0353 nM and the Fold change (IgG vs. Multabody), IL-6 Bioassay IC50 [3] was 26 fold. It also gave a Fold change, INA-6 proliferation IC50 (IgG against MB) [3] of 9 fold, an IC50 (nM), proliferation of IL-6-dependent INA-6 cells (CellTiter-Glo) [3] of 0.67 nM and an IC50 (pM), IL-6 Bioassay (luciferase reporter cells) [3] of 44 pM.

B1: Olokizumab Multabody (MB) (protein, part only; not given: Fab constants, linkers, ferritin carriers, not shown: another chain or arm of the molecule; a dimerising Fc or GST; large carriers; small tags and cut ends)
VH: EVQLVESGGGLVQPGGSLRLSCAASGFNFNDYFMNWVRQAPGKGLEWVAQMRNKNYQYGTYYAESLEGRFTISRDDSKNSLYLQMNSLKTEDTAVYYCARESYYGFTSYWGQGTLVTVSS
VL: DIQMTQSPSSLSASVGDRVTITCQASQDIGISLSWYQQKPGKAPKLLIYNANNLADGVPSRFSGSGSGTDFTLTISSLQPEDFATYYCLQHNSAPYTFGQGTKLEIK
B1 was tested, and the Kd [1] was < 0.001 nM, the EC50 [2] was 0.0454 nM and the Fold change (IgG vs. Multabody), IL-6 Bioassay IC50 [4] was 60 fold. The Fold change (IgG/MB), IL-6-induced pSTAT3/STAT3 IC50, HCT-15 cells [4] was 7 fold, the Fold change (IgG/MB), IL-6-induced pSTAT3/STAT3 IC50, THP-1 cells [4] was 8 fold and the Fold change, INA-6 proliferation IC50 (IgG against MB) [4] was 16 fold. For the same molecule, the IC50 (nM), IL-6-induced pSTAT3/STAT3 (Meso Scale Discovery), HCT-15 cells [4] was 0.03 nM, the IC50 (nM), IL-6-induced pSTAT3/STAT3 (Meso Scale Discovery), THP-1 cells [4] was 0.06 nM and the IC50 (nM), proliferation of IL-6-dependent INA-6 cells (CellTiter-Glo) [4] was 0.33 nM. The IC50 (pM), IL-6 Bioassay (luciferase reporter cells) [4] was 9.4 pM.

B2: olokizumab IgG (antibody, V domains shown)
VH: EVQLVESGGGLVQPGGSLRLSCAASGFNFNDYFMNWVRQAPGKGLEWVAQMRNKNYQYGTYYAESLEGRFTISRDDSKNSLYLQMNSLKTEDTAVYYCARESYYGFTSYWGQGTLVTVSS
VL: DIQMTQSPSSLSASVGDRVTITCQASQDIGISLSWYQQKPGKAPKLLIYNANNLADGVPSRFSGSGSGTDFTLTISSLQPEDFATYYCLQHNSAPYTFGQGTKLEIKR
notes: Tested as parental IgG; also called CDP6038
With B2 the binding result [5] was “no binding”, the binding result [6] was “no binding” and the “IC50 (nM), proliferation of IL-6-dependent INA-6 cells (CellTiter-Glo)” value [7] was 5.29 nM. For the same molecule, the EC50 [8] was 0.201 nM, the “IC50 (pM), IL-6 Bioassay (luciferase reporter cells)” value (from here on “IC50 (pM), IL-6 Bioassay”) [9] was 566 pM and the Kd [10] was < 0.001 nM. For the same molecule, the “IC50 (nM), IL-6-induced pSTAT3/STAT3 (Meso Scale Discovery), HCT-15 cells” value [11] was 0.2 nM and the “IC50 (nM), IL-6-induced pSTAT3/STAT3 (Meso Scale Discovery), THP-1 cells” value [11] was 0.48 nM.

B3: Clazakizumab Multabody (MB) (protein, part only; not given: Fab constants, linkers, ferritin carriers, not shown: another chain or arm of the molecule; a dimerising Fc or GST; large carriers; small tags and cut ends)
VH: EVQLVESGGGLVQPGGSLRLSCAASGFSLSNYYVTWVRQAPGKGLEWVGIIYGSDETAYATSAIGRFTISRDNSKNTLYLQMNSLRAEDTAVYYCARDDSSDWDAKFNLWGQGTLVTVSS
VL: AIQMTQSPSSLSASVGDRVTITCQASQSINNELSWYQQKPGKAPKLLIYRASTLASGVPSRFSGSGSGTDFTLTISSLQPDDFATYYCQQGYSLRNIDNAFGGGTKVEIK
With B3 the Kd [1] was < 0.001 nM, the EC50 [2] was 0.0543 nM and the Fold change (IgG vs. Multabody), IL-6 Bioassay IC50 [4] was 6 fold. The IC50 (pM), IL-6 Bioassay (luciferase reporter cells) [4] was 100 pM.

B4: clazakizumab IgG (antibody, V domains shown)
VH: EVQLVESGGGLVQPGGSLRLSCAASGFSLSNYYVTWVRQAPGKGLEWVGIIYGSDETAYATSAIGRFTISRDNSKNTLYLQMNSLRAEDTAVYYCARDDSSDWDAKFNLWGQGTLVTVSS
VL: AIQMTQSPSSLSASVGDRVTITCQASQSINNELSWYQQKPGKAPKLLIYRASTLASGVPSRFSGSGSGTDFTLTISSLQPDDFATYYCQQGYSLRNIDNAFGGGTKVEIKR
notes: Tested as parental IgG
B4 was tested, and the binding result [5] was “no binding”, the binding result [6] was “no binding” and the EC50 [8] was 0.176 nM. For the same molecule, the “IC50 (pM), IL-6 Bioassay” value [9] was 604 pM and the Kd [10] was < 0.001 nM.

B5: siltuximab immunoglobulin (IgG) (antibody, V domains shown)
VH: EVQLVESGGKLLKPGGSLKLSCAASGFTFSSFAMSWFRQSPEKRLEWVAEISSGGSYTYYPDTVTGRFTISRDNAKNTLYLEMSSLRSEDTAMYYCARGLWGYYALDYWGQGTSVTVSS
VL: QIVLIQSPAIMSASPGEKVTMTCSASSSVSYMYWYQQKPGSSPRLLIYDTSNLASGVPVRFSGSGSGTSYSLTISRMEAEDAATYYCQQWSGYPYTFGGGTKLEIKR
notes: Tested as parental IgG; also called siltuximab IgG; CNTO-328
In the case of B5, the binding result [5] is reported as “no binding”, the binding result [6] is reported as “no binding” and the “IC50 (nM), proliferation of IL-6-dependent INA-6 cells (CellTiter-Glo)” value [7] is reported as 5.88 nM. For the same molecule, the EC50 [8] was 0.154 nM, the “IC50 (pM), IL-6 Bioassay” value [9] was 1150 pM and the Kd [10] was < 0.001 nM.

B6: anti-IL-11 Multabody (MB), source antibody TPP-29536 (protein, part only; not given: Fab constants, linkers, ferritin carriers, not shown: another chain or arm of the molecule; a dimerising Fc or GST; large carriers; small tags and cut ends)
VH: EVQLLESGGGLVQPGGSLRLSCAASGFTFSSYGMHWVRQAPGKGLEWVAVISYDGSYKYYADSVKGRFTISRDNSKNTLYLQMNSLRAEDTAVYYCAAGVPDYWGQGTLVTVSS
VL: QSVLTQPPSASGTPGQRVTISCSGSSSNIGSDYDVHWYQQLPGTAPKLLIYSNEERPSGVPDRFSGSKSGTSASLAISGLRSEDEADYYCSAWDSSLSGPVFGGGTKLTVL
B6 showed a Fold change, IL-11-dependent pSTAT3/STAT3 IC50 (IgG against MB), Panc-1 cells [12] of 6 fold, an IC50 (nM), IL-11-dependent pSTAT3/STAT3 (Meso Scale Discovery), Panc-1 cells [12] of 0.13 nM and an EC50 [13] of 0.659 nM. For the same molecule, the fold better binding than the parental IgG control [13] was 3 to 4 fold.

B7: TPP-29536 IgG (antibody, V domains shown)
VH: EVQLLESGGGLVQPGGSLRLSCAASGFTFSSYGMHWVRQAPGKGLEWVAVISYDGSYKYYADSVKGRFTISRDNSKNTLYLQMNSLRAEDTAVYYCAAGVPDYWGQGTLVTVSS
VL: QSVLTQPPSASGTPGQRVTISCSGSSSNIGSDYDVHWYQQLPGTAPKLLIYSNEERPSGVPDRFSGSKSGTSASLAISGLRSEDEADYYCSAWDSSLSGPVFGGGTKLTVL
notes: Tested as parental IgG; also called anti-IL-11 IgG; parental IgG control
In the case of B7, the EC50 [14] is reported as 2.71 nM and the “IC50 (nM), IL-11-dependent pSTAT3/STAT3 (Meso Scale Discovery), Panc-1 cells” value [15] is reported as 0.79 nM.
